Laboratory results published in doi:10.1101/2022.06.14.495942 (bioRxiv, 2022).

T1: UFO in the purified ASK1-UFO-LFY-DBD complex (Arabidopsis thaliana, UniProt Q39090 1-442)
T1 sequence: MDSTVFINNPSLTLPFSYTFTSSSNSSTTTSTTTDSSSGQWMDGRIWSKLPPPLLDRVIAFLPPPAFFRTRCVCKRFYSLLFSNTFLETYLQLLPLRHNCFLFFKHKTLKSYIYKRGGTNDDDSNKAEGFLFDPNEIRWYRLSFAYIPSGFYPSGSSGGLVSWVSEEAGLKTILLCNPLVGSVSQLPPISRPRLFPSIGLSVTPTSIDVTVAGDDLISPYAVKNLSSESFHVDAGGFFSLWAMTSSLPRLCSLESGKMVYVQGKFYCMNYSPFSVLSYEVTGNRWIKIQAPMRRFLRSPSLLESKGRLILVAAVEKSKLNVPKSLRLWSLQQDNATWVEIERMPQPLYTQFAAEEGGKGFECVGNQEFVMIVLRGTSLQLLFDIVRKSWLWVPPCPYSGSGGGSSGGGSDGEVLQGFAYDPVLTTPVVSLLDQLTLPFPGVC


Assays:
[1] = molecular target: LFY-DBD in the purified ASK1-UFO-LFY-DBD complex (Arabidopsis thaliana); test: SEC-MALS
[2] = molecular target: T1, UFO in the purified ASK1-UFO-LFY-DBD …; test: SEC-MALS

Row | stoichiometry N [1] | stoichiometry N [2] | Binder
1 | 1 | – | UFO in the purified ASK1-UFO-LFY-DBD complex (natural protein) MDSTVFINNPSLTLPFSYTFTSSSNSSTTTSTTTDSSSGQWMDGRIWSKLPPPLLDRVIAFLPPPAFFRTRCVCKRFYSLLFSNTFLETYLQLLPLRHNCFLFFKHKTLKSYIYKRGGTNDDDSNKAEGFLFDPNEIRWYRLSFAYIPSGFYPSGSSGGLVSWVSEEAGLKTILLCNPLVGSVSQLPPISRPRLFPSIGLSVTPTSIDVTVAGDDLISPYAVKNLSSESFHVDAGGFFSLWAMTSSLPRLCSLESGKMVYVQGKFYCMNYSPFSVLSYEVTGNRWIKIQAPMRRFLRSPSLLESKGRLILVAAVEKSKLNVPKSLRLWSLQQDNATWVEIERMPQPLYTQFAAEEGGKGFECVGNQEFVMIVLRGTSLQLLFDIVRKSWLWVPPCPYSGSGGGSSGGGSDGEVLQGFAYDPVLTTPVVSLLDQLTLPFPGVC
2 | – | 1 | ASK1 in the purified ASK1-UFO-LFY-DBD complex (natural protein) MSAKKIVLKSSDGESFEVEEAVALESQTIAHMVEDDCVDNGVPLPNVTSKILAKVIEYCKRHVEAAASKAEAVEGAATSDDDLKAWDADFMKIDQATLFELILAANYLNIKNLLDLTCQTVADMIKGKTPEEIRTTFNIKNDFTPEEEEEVRRENQWAFE
